Where a chain is given by its changes, count along the chain named.
B1: 86 (antibody, V domains shown)
VL: DIQMTQSPSSLSASVGDRVTITCRASENIYRNLAWYQQKPGKAPKLLLYAATNLADGVPSRFSGSGSGTDYTLTISSLQSEDFATYYCQHFWGTPWTFGQGTKVEIK
VH: QIQLVQSGSELKKPGASVKVSCKASGYTFTDYSMHWVRQAPGQGLKWMGWINTETGEPTYADDFKGRFVFSLDTSVSTAYLQISSLKAEDTAVYYCARIPLYYYGSRYWYFDVWGQGTTVTVSS
modifications: constant regions without entry; synthetic humanized antibody light chain variable region sequence; synthetic humanized antibody heavy chain variable region sequence
B2: 92 (antibody, V domains shown)
VL: B1 VL with K45Q, S80P
VH: B1 VH
modifications: constant regions without entry; synthetic humanized antibody light chain variable region sequence; synthetic humanized antibody heavy chain variable region sequence
B3: 96 (antibody, V domains shown)
VL: EIVMTQSPATLSVSPGERATLSCRASENIYRNLAWYQQKPGQSPRLLIYAATNLADGIPARFSGSGSGTEYTLTISSLQSEDFAVYYCQHFWGTPWTFGQGTKVEIK
VH: B1 VH with I2V
modifications: constant regions without entry; synthetic humanized antibody light chain variable region sequence; synthetic humanized antibody heavy chain variable region sequence
B4: 88 (antibody, V domains shown)
VL: B1 VL with K45Q, S80P
VH: B1 VH with I2V, D62Q, D63G, K65T
modifications: constant regions without entry; synthetic humanized antibody light chain variable region sequence; synthetic humanized antibody heavy chain variable region sequence
B5: 93 (antibody, V domains shown)
VL: B3 VL
VH: B1 VH with I2V, K46E, D62Q, D63G, K65T
modifications: constant regions without entry; synthetic humanized antibody light chain variable region sequence; synthetic humanized antibody heavy chain variable region sequence
B6: 95 (antibody, V domains shown)
VL: B3 VL
VH: B1 VH with I2V, K46E
modifications: constant regions without entry; synthetic humanized antibody light chain variable region sequence; synthetic humanized antibody heavy chain variable region sequence
B7: 94 (antibody, V domains shown)
VL: B3 VL
VH: B1 VH with I2V, D62Q, D63G, K65T
modifications: constant regions without entry; synthetic humanized antibody light chain variable region sequence; synthetic humanized antibody heavy chain variable region sequence
B8: 91 (antibody, V domains shown)
VL: B1 VL with K45Q, S80P
VH: B1 VH with I2V
modifications: constant regions without entry; synthetic humanized antibody light chain variable region sequence; synthetic humanized antibody heavy chain variable region sequence
B9: 87 (antibody, V domains shown)
VL: B1 VL with K45Q, S80P
VH: B1 VH with I2V, K46E, D62Q, D63G, K65T
modifications: constant regions without entry; synthetic humanized antibody light chain variable region sequence; synthetic humanized antibody heavy chain variable region sequence
B10: 89 (antibody, V domains shown)
VL: B1 VL with K45Q, S80P
VH: B1 VH with D62Q, D63G, K65T
modifications: constant regions without entry; synthetic humanized antibody light chain variable region sequence; synthetic humanized antibody heavy chain variable region sequence
B11: 71 (antibody, V domains shown)
VH: B1 VH with D62Q, D63G, K65T
VL: B3 VL
modifications: synthetic humanized antibody heavy chain variable region sequence; synthetic humanized antibody light chain variable region sequence
B12: 73 (antibody, V domains shown)
VH: B1 VH
VL: B3 VL
modifications: synthetic humanized antibody heavy chain variable region sequence; synthetic humanized antibody light chain variable region sequence
B13: 90 (antibody, V domains shown)
VL: B1 VL with K45Q, S80P
VH: B1 VH with I2V, K46E
modifications: constant regions without entry; synthetic humanized antibody light chain variable region sequence; synthetic humanized antibody heavy chain variable region sequence

molecular target: T1, human EphA4 (Homo sapiens, UniProt P54764); assay: Affinity of humanized antibodies by SPR (Biacore T200); assay type: binding; settings: human EphA4 extracellular region-SEAP-His; 1:1 binding model
T1 construct: made in house; not restated for the human SEAP-His protein
Experimental: The binding affinity of each anti-EphA4 monoclonal humanized antibody obtained in Example 16 for human EphA4 was determined by surface plasmon resonance (SPR) using Biacore T200 (GE Healthcare). First, for the assay of antibody A, a rat anti-mouse IgG1 antibody produced with a conventional method by immunizing rat with mouse IgG1 antibody was immobilized on sensor chip CM5. The immobilization of the rat anti-mouse IgG1 antibody on sensor chip CM5 was performed by the amine coupling method using N-hydroxysuccinimide (NHS) and N-ethyl-N′-(3-dimethylaminopropyl)carbodiimide hydrochloride (EDC). Ethanolamine was used in blocking (the sensor chip and the reagents for immobilization were all manufactured by GE Healthcare). The antibody was diluted with a buffer solution for immobilization (10 mM sodium acetate, pH 4.5) and immobilized on the sensor chip according to the protocol attached to Biacore T200. For the assay of each humanized monoclonal antibody, a protein A chip (GE Healthcare, 29-1383-03) was used. Antibody A or the humanized monoclonal antibody was diluted with a running buffer solution HBS-EP (GE Healthcare), injected onto only flow cell 2 for 120 seconds, and captured (captured amount: approximately 30 to 60 RU). Subsequently, human EphA4 extracellular region-SEAP-His protein serially diluted in the range of 50, 16.7, 5.6, 1.9, and 0.6 nM using HBS-EP was sequentially added from the lower toward higher concentration sides without regeneration operation. Binding reaction curves were sequentially observed at the time of the addition (association phase, for 120 sec) and after the completion of the addition (dissociation phase, for 900 sec). After the completion of each observation, the sensor chip was regenerated by the addition of 3 M MgCl2 (for 60 sec) or 10 mM Glycine-HCl pH 1.5 (for 30 sec). The obtained binding reaction curves were subjected to fitting analysis with 1:1 binding models using software BIA evaluation attached to the system to calculate the affinity (KD=kd/ka) for human EphA4 (Table 6).

T1 sequence (P54764 20-547): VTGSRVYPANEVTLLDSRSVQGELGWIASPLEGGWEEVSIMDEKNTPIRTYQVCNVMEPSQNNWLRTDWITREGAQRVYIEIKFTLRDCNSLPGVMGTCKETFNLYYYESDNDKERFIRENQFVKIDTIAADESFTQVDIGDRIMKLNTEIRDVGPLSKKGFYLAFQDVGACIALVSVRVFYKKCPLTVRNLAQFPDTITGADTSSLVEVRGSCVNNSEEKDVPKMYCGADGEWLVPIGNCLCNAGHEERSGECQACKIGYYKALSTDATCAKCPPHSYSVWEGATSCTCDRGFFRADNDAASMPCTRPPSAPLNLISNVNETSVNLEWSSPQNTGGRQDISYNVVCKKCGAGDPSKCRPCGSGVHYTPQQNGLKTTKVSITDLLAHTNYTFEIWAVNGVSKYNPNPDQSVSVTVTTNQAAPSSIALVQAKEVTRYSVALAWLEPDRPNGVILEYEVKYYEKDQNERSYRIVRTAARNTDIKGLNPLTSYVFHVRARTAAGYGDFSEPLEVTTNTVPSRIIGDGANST

Row | ka [M⁻¹ s⁻¹] | kd [s⁻¹] | Molecule
1 | 310000 | 0.00046 | B1
2 | 330000 | 0.00043 | B2
3 | 270000 | 0.00031 | B3
4 | 300000 | 0.00042 | B4
5 | 310000 | 0.00024 | B5
6 | 300000 | 0.00031 | B6
7 | 260000 | 0.00024 | B7
8 | 330000 | 0.00044 | B8
9 | 350000 | 0.00051 | B9
10 | 310000 | 0.00041 | B10
11 | 280000 | 0.00023 | B11
12 | 290000 | 0.00027 | B12
13 | 360000 | 0.00055 | B13

same assay, conditions: human EphA4 extracellular region-SEAP-His; KD=kd/ka

Row | Kd [nM] | Molecule
14 | 1.5 | B1
15 | 1.3 | B2
16 | 1.1 | B3
17 | 1.4 | B4
18 | 0.77 | B5
19 | 1 | B6
20 | 0.95 | B7
21 | 1.3 | B8
22 | 1.5 | B9
23 | 1.3 | B10
24 | 0.82 | B11
25 | 0.93 | B12
26 | 1.5 | B13

molecular target: T2, human EphA4 (binding to human Ephrin A5) (Homo sapiens, UniProt P54764); assay: Human EphA4-human ligand binding inhibition ELISA of humanized antibodies (biotinylated Ephrin A5-Fc); settings: biotinylated human Ephrin A5-Fc 0.7 nM
T2 construct: made in house; not restated for the human SEAP-His protein
Experimental: Each anti-EphA4 monoclonal humanized antibody obtained in Example 16 was evaluated for its inhibitory activity against the binding between human EphA4 and its human ligand according to the following steps. Each well of a 96-well plate (Nunc) was coated with an anti-alkaline phosphatase antibody (Thermo Fisher Scientific). After incubation overnight at 4° C., each well was blocked with 1% BlockAce (DS Pharma Biomedical) at room temperature for 1 hour. After washing with 0.05% Tween 20/PBS (Thermo Fisher Scientific) three times, the human EphA4 extracellular region-SEAP-His protein obtained by the method of Example 2 was added (final concentration: 10 nM) to each well and incubated at room temperature for 1 hour. After washing three times, a ligand and each serially diluted humanized antibody of antibody A (0, 0.003, 0.01, 0.03, 0.1, 0.3, 1, 3, 10, 30, 100, 300, 1000, and 3000 nM) were added to each well. The ligand used was biotinylated human Ephrin A5-Fc chimera (R&D Systems, final concentration: 0.7 nM). After incubation at room temperature for 1 hour and subsequent washing three times, horseradish peroxidase-labeled streptavidin (GE Healthcare) was added thereto and incubated at room temperature for 1 hour. After washing three times, a TMBZ (3,3′,5,5′-tetramethylbenzidine, Sigma-Aldrich) solution was added to each well and incubated at room temperature for 2 minutes. An equal amount of a reaction stopping solution (1N H2SO4, Wako Pure Chemical Industries) was added to each well. The absorbance at 450 nm was read using a microplate reader (PerkinElmer).

T2 sequence (P54764 20-547): as above

Row | IC50 [nM] | Molecule
27 | 4 | B1
28 | 3.5 | B2
29 | 3.7 | B3
30 | 3.6 | B4
31 | 2.5 | B5
32 | 3.1 | B6
33 | 2.7 | B7
34 | 4.9 | B8
35 | 3 | B9
36 | 4.3 | B10
37 | 2.5 | B11
38 | 2.4 | B12
39 | 4.5 | B13
